Laboratory results taken from the RNAGym collection of RNA variant scans (doi:10.7554/elife.80360).

B1: Hairpin Ribozyme (parent)
chain: GUCCUCUUUCACGUGCGCGUGAAAGAGAGAAGUGAACCAGAGAAACACACGUUGUGGUAUAUUACCUGGUA

Variants of: B1
Experiment: self-cleavage, relative activity (ratio to wild type); higher = more cleavage; co-transcriptional

Q: With A22G U55G as the variant, how does the self-cleavage read?
A: The self-cleavage was 0.33.

Q: For A23G G69U, which self-cleavage is on record?
A: The self-cleavage was 0.148.

Q: Which self-cleavage does the source give for A23G C46U here?
A: The self-cleavage was 0.0862.

Q: With A24G G51C as the variant, how does the self-cleavage read?
A: The self-cleavage was 0.829.

Q: With A24G G42C as the variant, how does the self-cleavage read?
A: The self-cleavage was 0.275.

Q: For A24G G42A, which self-cleavage is on record?
A: The self-cleavage was 0.111.

Q: With A24G G42U as the variant, how does the self-cleavage read?
A: The self-cleavage was 0.289.

Q: For A23G A45U, which self-cleavage is on record?
A: The self-cleavage was 0.143.

Q: Which self-cleavage does the source give for A23G A45C here?
A: The self-cleavage was 0.0971.

Q: Which self-cleavage does the source give for A23G A45G here?
A: The self-cleavage was 0.175.

Q: For A23U U33G, which self-cleavage is on record?
A: Its self-cleavage is 0.158.

Q: With A23U U63G as the variant, how does the self-cleavage read?
A: The self-cleavage was 0.199.

Q: For A23C G42U, which self-cleavage is on record?
A: The self-cleavage was 0.348.

Q: Which self-cleavage does the source give for A23C G42C here?
A: Its self-cleavage is 0.422.

Q: With A23C G42A as the variant, how does the self-cleavage read?
A: The self-cleavage was 0.287.

Q: For A22U G69C, which self-cleavage is on record?
A: The self-cleavage was 0.219.

Q: Which self-cleavage does the source give for A23U A71U here?
A: Its self-cleavage is 0.66.

Q: With A24C A49C as the variant, how does the self-cleavage read?
A: The self-cleavage was 0.308.

Q: Which self-cleavage does the source give for A23G A49U here?
A: The self-cleavage was 0.227.

Q: Which self-cleavage does the source give for A22U A39G here?
A: Its self-cleavage is 0.277.

Q: With A22U A39C as the variant, how does the self-cleavage read?
A: The self-cleavage was 0.456.

Q: Which self-cleavage does the source give for A22U A47G here?
A: The self-cleavage was 0.115.

Q: With A24C A36C as the variant, how does the self-cleavage read?
A: Its self-cleavage is 0.631.

Q: Which self-cleavage does the source give for A23C G32C here?
A: Its self-cleavage is 0.0217.

Q: Which self-cleavage does the source give for A23C G32A here?
A: The self-cleavage was 0.102.

Q: For A23C G32U, which self-cleavage is on record?
A: Its self-cleavage is 0.15.

Q: With A23G U63A as the variant, how does the self-cleavage read?
A: The self-cleavage was 0.113.

Q: For A23G U55A, which self-cleavage is on record?
A: The self-cleavage was 0.273.

Q: For A23G U55C, which self-cleavage is on record?
A: The self-cleavage was 0.322.

Q: Which self-cleavage does the source give for A23G A64G here?
A: Its self-cleavage is 0.43.

Q: With A23G A64U as the variant, how does the self-cleavage read?
A: Its self-cleavage is 0.125.

Q: For A23G G42U, which self-cleavage is on record?
A: The self-cleavage was 0.359.

Q: With A23G G42A as the variant, how does the self-cleavage read?
A: Its self-cleavage is 0.192.

Q: For A22U U63C, which self-cleavage is on record?
A: Its self-cleavage is 0.0646.

Q: Which self-cleavage does the source give for A22U U63G here?
A: The self-cleavage was 0.203.

Q: For A24C C65U, which self-cleavage is on record?
A: The self-cleavage was 0.402.

Q: Which self-cleavage does the source give for A24C C65A here?
A: Its self-cleavage is 0.922.

Q: For A24C C65G, which self-cleavage is on record?
A: The self-cleavage was 0.296.

Q: Which self-cleavage does the source give for A23C U70A here?
A: The self-cleavage was 0.872.

Q: With A23C U70G as the variant, how does the self-cleavage read?
A: Its self-cleavage is 0.685.

Q: With A23G A59U as the variant, how does the self-cleavage read?
A: The self-cleavage was 0.0772.

Q: With A23G U33G as the variant, how does the self-cleavage read?
A: The self-cleavage was 0.125.

Q: For A23G U33A, which self-cleavage is on record?
A: Its self-cleavage is 0.131.

Q: For A22G G57C, which self-cleavage is on record?
A: Its self-cleavage is 0.141.

Q: For A23C C38G, which self-cleavage is on record?
A: The self-cleavage was 0.0489.

Q: With A23U A26U as the variant, how does the self-cleavage read?
A: Its self-cleavage is 0.606.

Q: For A23U A26C, which self-cleavage is on record?
A: Its self-cleavage is 0.545.

Q: Which self-cleavage does the source give for A23U G27A here?
A: Its self-cleavage is 0.394.

Q: With A24C G25A as the variant, how does the self-cleavage read?
A: The self-cleavage was 0.219.

Q: Which self-cleavage does the source give for A23G U70G here?
A: The self-cleavage was 0.759.

Q: For A23G A47U, which self-cleavage is on record?
A: The self-cleavage was 0.151.

Q: With A23G A47C as the variant, how does the self-cleavage read?
A: The self-cleavage was 0.3.

Q: For A23G A47G, which self-cleavage is on record?
A: The self-cleavage was 0.171.

Q: With A22U U67C as the variant, how does the self-cleavage read?
A: Its self-cleavage is 0.168.

Q: With A22U U67A as the variant, how does the self-cleavage read?
A: The self-cleavage was 0.188.

Q: For A22G C66G, which self-cleavage is on record?
A: The self-cleavage was 0.302.

Q: Which self-cleavage does the source give for A23G A61G here?
A: Its self-cleavage is 0.136.

Q: With A23G A61C as the variant, how does the self-cleavage read?
A: The self-cleavage was 0.266.

Q: With A22G G69U as the variant, how does the self-cleavage read?
A: The self-cleavage was 0.238.

Q: With A22G G69A as the variant, how does the self-cleavage read?
A: The self-cleavage was 0.385.

Q: With A22U G51A as the variant, how does the self-cleavage read?
A: The self-cleavage was 0.811.

Q: For A23C C46U, which self-cleavage is on record?
A: The self-cleavage was 0.0785.

Q: With A23U A59G as the variant, how does the self-cleavage read?
A: Its self-cleavage is 0.183.

Q: With A23C A49U as the variant, how does the self-cleavage read?
A: Its self-cleavage is 0.257.

Q: Which self-cleavage does the source give for A23C A49G here?
A: Its self-cleavage is 0.393.

Q: With A24C G40C as the variant, how does the self-cleavage read?
A: Its self-cleavage is 0.185.

Q: Which self-cleavage does the source give for A24C G40A here?
A: Its self-cleavage is 0.335.

Q: With A24C G56A as the variant, how does the self-cleavage read?
A: Its self-cleavage is 0.1.

Q: Which self-cleavage does the source give for A24C G56U here?
A: Its self-cleavage is 0.231.

Q: Which self-cleavage does the source give for A24C G56C here?
A: Its self-cleavage is 0.115.

Q: Which self-cleavage does the source give for A23U C46U here?
A: The self-cleavage was 0.131.

Q: With A23G C48A as the variant, how does the self-cleavage read?
A: The self-cleavage was 0.123.

Q: Which self-cleavage does the source give for A23G C48G here?
A: The self-cleavage was 0.159.

Q: For A23G A44G, which self-cleavage is on record?
A: Its self-cleavage is 0.126.

Q: For A23U U67A, which self-cleavage is on record?
A: Its self-cleavage is 0.237.

Q: Which self-cleavage does the source give for A23U U67C here?
A: The self-cleavage was 0.229.

Q: Which self-cleavage does the source give for A23U U67G here?
A: Its self-cleavage is 0.213.

Q: For A22G G27U, which self-cleavage is on record?
A: Its self-cleavage is 0.262.

Q: For A22G G27C, which self-cleavage is on record?
A: Its self-cleavage is 0.161.

Q: Which self-cleavage does the source give for A24C A71C here?
A: The self-cleavage was 1.33.

Q: For A23C A24U, which self-cleavage is on record?
A: Its self-cleavage is 0.626.

Q: Which self-cleavage does the source give for A23C A44C here?
A: Its self-cleavage is 0.251.

Q: For A24G A31C, which self-cleavage is on record?
A: Its self-cleavage is 0.041.

Q: Which self-cleavage does the source give for A24G A31U here?
A: Its self-cleavage is 0.111.
